Test results from article doi:10.1101/406538 (bioRxiv, 2018).

Target: T1, ATI2-N, N-terminal region of ATG8 Interacting Protein 2 (M1-T193) (Arabidopsis thaliana, UniProt Q8VY98 1-193)
T1 sequence (looked up): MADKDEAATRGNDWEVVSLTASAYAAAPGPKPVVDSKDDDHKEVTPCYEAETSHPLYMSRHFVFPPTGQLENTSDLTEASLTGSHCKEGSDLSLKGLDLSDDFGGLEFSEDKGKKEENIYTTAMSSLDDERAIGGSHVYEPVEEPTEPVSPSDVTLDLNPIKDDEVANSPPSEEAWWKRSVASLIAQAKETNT
Experiment: NMR titration

B1: ATG8f, processed form (1-117), recombinant (natural protein, Arabidopsis thaliana, UniProt Q8VYK7 1-117, looked up)
chain: MAKSSFKQEHDLEKRRAEAARIREKYPDRIPVIVEKAEKSDIPTIDKKKYLVPADLTVGQFVYVIRKRIKLSAEKAIFIFVDNVLPPAGALMSSVYEEKKDDDGFLYVTYSGENTFG
  binding result: binds
